Measurements published in patent US10947296B2, “Fusion protein Slit2D2(C386S)-HSA and use thereof in treatment of fibrotic diseases” (SUZHOU THINKING POWER BIOTECHNOLOGY CO., LTD., priority 2016, dated 2021).

Tested on: pulmonary fibrosis model
Assay: Efficacy on bleomycin-induced pulmonary fibrosis model
Format: in vivo
Set-up: body weight of the animals (Mean ± SEM) / Weight of the left lung (Mean ± SEM) / Volume of the left lung (Mean ± SEM): unit not given here
Details: for Volume of the left lung (Mean ± SEM) / Weight of the left lung (Mean ± SEM): after formalin perfusion, day 14
Procedure: Animals were anesthetized by inhaling isoflurane. After confirmation of anesthesia, the animals were sterilized, then the neck skin was cut, the muscles were bluntly separated to expose the trachea, and bleomycin (dosage: 3 mg/kg, volume: 1.0 mL/kg) was directly injected between the tracheal rings. After the operation, the animals were placed in a 37° C. electric blanket to keep warm until the animals were completely awakened. After confirming that they were able to eat and drink freely, the animals were returned to the cage for normal feeding.
In this experiment, there were four groups, i.e., model group (experimental group-1, […]), PFD group (experimental group-2, n=6), Slit2D2(C386S)-HSA-1 mg/kg (experimental group-3, n=6), and Slit2D2(C386S)-HSA-5 mg/kg (experimental group-4, n=6).
In this experiment, the positive control drug (PFD) was given to rats by gavage twice a day, which was started on the day of modeling, and administered continuously for 14 days. The test compound (Slit2D2(C386S)-HSA) was given intravenously once every other day, which was started on the day of modeling, and a total of seven doses were administered (as shown in table 6).
Physiological observation of the experimental animals: changes in body weight of the animals were measured (body weight was measured once a day before administration); and the death rate of animals during the test period was monitored.
Animals were euthanized 24 hours after the last administration on the 14th day of modeling. After confirming the death of the animals, the left lung was fixed by intrapulmonary infusion of formalin, and the volume and weight of the left lung after perfusion were measured for relevant examination of the pulmonary pathology.
General pathological examination: After the perfusion with an equal amount of formalin in the left lung, the wet weight of left lung after perfusion was weighed/recorded with a micro-balance; and the volume of left lung after perfusion was measured and recorded using a micro-measuring cup.
Pathological examination of lung tissue: The whole lung was dehydrated. Lung paraffin sections were made with paraffin blocks. […] HE staining and Masson Trichrome staining were performed according to pathological staining SOP, and whole section scanning was performed using a Digital Pathscope slice scanner. Pathological analysis and scoring of changes in damage and inflammation of terminal bronchioles and accompanying small pulmonary artery at the periphery of the lesions (as shown in Tables 7 and 8 and FIG. 7) were performed using the HE-stained sections. Lesion area calculation, lesion pathology analysis and scoring were performed with the Masson Trichrome-stained sections (as shown in Table 9 and FIG. 8).
The mean±sd or mean±sem was calculated using the graphpad prism software, and the significant difference test was performed using t-test, one-way ANOVA and two-way ANOVA test. A significant difference between the two groups was considered at p<0.05.

Question: “Slit2D2(C386S)-HSA: Fusion protein of the Slit2 D2 domain with C386S mutation linked to human serum albumin; amino acid sequence SEQ ID NO: 3” was tested. Which “inhibiting pulmonary fibrosis, compared with positive compound (PFD)” value (5 mg/kg dose group, iv Q2D) did it give?
Answer: superior to the positive compound (PFD)

Question: And the “Volume of the left lung (Mean ± SEM)” value (1mpk (BID))?
Answer: 1.27 ± 0.02

Question: And the “Weight of the left lung (Mean ± SEM)” value (1mpk (BID))?
Answer: 1.20 ± 0.03

Question: And the “body weight of the animals (Mean ± SEM)” value (1mpk Q2D iv, Day 1)?
Answer: 273.8 ± 3.1

Question: What about the “body weight of the animals (Mean ± SEM)” value (1mpk Q2D iv, Day 3) of the same substance?
Answer: 255.2 ± 3.2

Question: And the “body weight of the animals (Mean ± SEM)” value (1mpk Q2D iv, Day 5)?
Answer: 262.8 ± 4.7

Question: What about the “body weight of the animals (Mean ± SEM)” value (1mpk Q2D iv, Day 7) of the same substance?
Answer: 276.7 ± 5.4

Question: And the “body weight of the animals (Mean ± SEM)” value (1mpk Q2D iv, Day 9)?
Answer: 290.7 ± 6.3

Question: And the “body weight of the animals (Mean ± SEM)” value (1mpk Q2D iv, Day 11)?
Answer: 302.7 ± 6.9

Question: What about the “body weight of the animals (Mean ± SEM)” value (1mpk Q2D iv, Day 13) of the same substance?
Answer: 310.3 ± 7.8

Question: And the “Volume of the left lung (Mean ± SEM)” value (5mpk (BID))?
Answer: 1.32 ± 0.03

Question: What about the “Weight of the left lung (Mean ± SEM)” value (5mpk (BID)) of the same substance?
Answer: 1.31 ± 0.07

Question: And the “body weight of the animals (Mean ± SEM)” value (5mpk Q2D iv, Day 1)?
Answer: 272.7 ± 1.8

Question: And the “body weight of the animals (Mean ± SEM)” value (5mpk Q2D iv, Day 3)?
Answer: 251.8 ± 2.3

Question: What about the “body weight of the animals (Mean ± SEM)” value (5mpk Q2D iv, Day 5) of the same substance?
Answer: 245.0 ± 5.0

Question: And the “body weight of the animals (Mean ± SEM)” value (5mpk Q2D iv, Day 7)?
Answer: 258.3 ± 4.4

Question: What about the “body weight of the animals (Mean ± SEM)” value (5mpk Q2D iv, Day 9) of the same substance?
Answer: 272.5 ± 5.0

Question: What about the “body weight of the animals (Mean ± SEM)” value (5mpk Q2D iv, Day 11) of the same substance?
Answer: 284.3 ± 5.9

Question: And the “body weight of the animals (Mean ± SEM)” value (5mpk Q2D iv, Day 13)?
Answer: 292.2 ± 5.6

Question: And the “inhibition on the progression of pulmonary fibrosis” value (intravenous, every other day for 2 weeks, 1 and 5 mg/kg)?
Answer: significant inhibition on the progression of pulmonary fibrosis, with a dose-dependent trend
